Source: paper PMC10663500, “High-throughput analysis system of interaction kinetics for data-driven antibody design” (Scientific Reports, 2023)

B1: toripalimab Fab L.S32A (Fab, V domains shown)
VH: QGQLVQSGAEVKKPGASVKVSCKASGYTFTDYEMHWVRQAPIHGLEWIGVIESETGGTAYNQKFKGRVTITADKSTSTAYMELSSLRSEDTAVYYCAREGITTVATTYYWYFDVWGQGTTVTVSS
VL: DVVMTQSPLSLPVTLGQPASISCRSSQSIVHANGNTYLEWYLQKPGQSPQLLIYKVSNRFSGVPDRFSGSGSGTDFTLKISRVEAEDVGVYYCFQGSHVPLTFGQGTKLEIK
notes: as the heavy chain of Sm3; light chain of Sm3 with this change; numbers count from the chain's first residue; source: Brevibacillus, culture supernatant (ammonium sulfate precipitate); not shown: 6xHis, C-terminal, kept; 6xHN, C-terminal, kept
B2: toripalimab Fab L.N33Y (Fab, V domains shown)
VH: QGQLVQSGAEVKKPGASVKVSCKASGYTFTDYEMHWVRQAPIHGLEWIGVIESETGGTAYNQKFKGRVTITADKSTSTAYMELSSLRSEDTAVYYCAREGITTVATTYYWYFDVWGQGTTVTVSS
VL: DVVMTQSPLSLPVTLGQPASISCRSSQSIVHSYGNTYLEWYLQKPGQSPQLLIYKVSNRFSGVPDRFSGSGSGTDFTLKISRVEAEDVGVYYCFQGSHVPLTFGQGTKLEIK
notes: as for B1
B3: toripalimab Fab L.G34A (Fab, V domains shown)
VH: QGQLVQSGAEVKKPGASVKVSCKASGYTFTDYEMHWVRQAPIHGLEWIGVIESETGGTAYNQKFKGRVTITADKSTSTAYMELSSLRSEDTAVYYCAREGITTVATTYYWYFDVWGQGTTVTVSS
VL: DVVMTQSPLSLPVTLGQPASISCRSSQSIVHSNANTYLEWYLQKPGQSPQLLIYKVSNRFSGVPDRFSGSGSGTDFTLKISRVEAEDVGVYYCFQGSHVPLTFGQGTKLEIK
notes: as for B1
B4: toripalimab Fab L.T36A (Fab, V domains shown)
VH: QGQLVQSGAEVKKPGASVKVSCKASGYTFTDYEMHWVRQAPIHGLEWIGVIESETGGTAYNQKFKGRVTITADKSTSTAYMELSSLRSEDTAVYYCAREGITTVATTYYWYFDVWGQGTTVTVSS
VL: DVVMTQSPLSLPVTLGQPASISCRSSQSIVHSNGNAYLEWYLQKPGQSPQLLIYKVSNRFSGVPDRFSGSGSGTDFTLKISRVEAEDVGVYYCFQGSHVPLTFGQGTKLEIK
notes: as for B1
B5: toripalimab Fab L.V56A (Fab, V domains shown)
VH: QGQLVQSGAEVKKPGASVKVSCKASGYTFTDYEMHWVRQAPIHGLEWIGVIESETGGTAYNQKFKGRVTITADKSTSTAYMELSSLRSEDTAVYYCAREGITTVATTYYWYFDVWGQGTTVTVSS
VL: DVVMTQSPLSLPVTLGQPASISCRSSQSIVHSNGNTYLEWYLQKPGQSPQLLIYKASNRFSGVPDRFSGSGSGTDFTLKISRVEAEDVGVYYCFQGSHVPLTFGQGTKLEIK
notes: as for B1
B6: toripalimab Fab L.T36Y (Fab, V domains shown)
VH: QGQLVQSGAEVKKPGASVKVSCKASGYTFTDYEMHWVRQAPIHGLEWIGVIESETGGTAYNQKFKGRVTITADKSTSTAYMELSSLRSEDTAVYYCAREGITTVATTYYWYFDVWGQGTTVTVSS
VL: DVVMTQSPLSLPVTLGQPASISCRSSQSIVHSNGNYYLEWYLQKPGQSPQLLIYKVSNRFSGVPDRFSGSGSGTDFTLKISRVEAEDVGVYYCFQGSHVPLTFGQGTKLEIK
notes: as for B1
B7: toripalimab Fab L.N35Y (Fab, V domains shown)
VH: QGQLVQSGAEVKKPGASVKVSCKASGYTFTDYEMHWVRQAPIHGLEWIGVIESETGGTAYNQKFKGRVTITADKSTSTAYMELSSLRSEDTAVYYCAREGITTVATTYYWYFDVWGQGTTVTVSS
VL: DVVMTQSPLSLPVTLGQPASISCRSSQSIVHSNGYTYLEWYLQKPGQSPQLLIYKVSNRFSGVPDRFSGSGSGTDFTLKISRVEAEDVGVYYCFQGSHVPLTFGQGTKLEIK
notes: as for B1
B8: toripalimab Fab L.L38A (Fab, V domains shown)
VH: QGQLVQSGAEVKKPGASVKVSCKASGYTFTDYEMHWVRQAPIHGLEWIGVIESETGGTAYNQKFKGRVTITADKSTSTAYMELSSLRSEDTAVYYCAREGITTVATTYYWYFDVWGQGTTVTVSS
VL: DVVMTQSPLSLPVTLGQPASISCRSSQSIVHSNGNTYAEWYLQKPGQSPQLLIYKVSNRFSGVPDRFSGSGSGTDFTLKISRVEAEDVGVYYCFQGSHVPLTFGQGTKLEIK
notes: as for B1
B9: toripalimab Fab L.S32Y (Fab, V domains shown)
VH: QGQLVQSGAEVKKPGASVKVSCKASGYTFTDYEMHWVRQAPIHGLEWIGVIESETGGTAYNQKFKGRVTITADKSTSTAYMELSSLRSEDTAVYYCAREGITTVATTYYWYFDVWGQGTTVTVSS
VL: DVVMTQSPLSLPVTLGQPASISCRSSQSIVHYNGNTYLEWYLQKPGQSPQLLIYKVSNRFSGVPDRFSGSGSGTDFTLKISRVEAEDVGVYYCFQGSHVPLTFGQGTKLEIK
notes: as for B1
B10: toripalimab Fab L.K55A (Fab, V domains shown)
VH: QGQLVQSGAEVKKPGASVKVSCKASGYTFTDYEMHWVRQAPIHGLEWIGVIESETGGTAYNQKFKGRVTITADKSTSTAYMELSSLRSEDTAVYYCAREGITTVATTYYWYFDVWGQGTTVTVSS
VL: DVVMTQSPLSLPVTLGQPASISCRSSQSIVHSNGNTYLEWYLQKPGQSPQLLIYAVSNRFSGVPDRFSGSGSGTDFTLKISRVEAEDVGVYYCFQGSHVPLTFGQGTKLEIK
notes: as for B1
B11: toripalimab Fab L.K55Y (Fab, V domains shown)
VH: QGQLVQSGAEVKKPGASVKVSCKASGYTFTDYEMHWVRQAPIHGLEWIGVIESETGGTAYNQKFKGRVTITADKSTSTAYMELSSLRSEDTAVYYCAREGITTVATTYYWYFDVWGQGTTVTVSS
VL: DVVMTQSPLSLPVTLGQPASISCRSSQSIVHSNGNTYLEWYLQKPGQSPQLLIYYVSNRFSGVPDRFSGSGSGTDFTLKISRVEAEDVGVYYCFQGSHVPLTFGQGTKLEIK
notes: as for B1
B12: toripalimab Fab L.N33A (Fab, V domains shown)
VH: QGQLVQSGAEVKKPGASVKVSCKASGYTFTDYEMHWVRQAPIHGLEWIGVIESETGGTAYNQKFKGRVTITADKSTSTAYMELSSLRSEDTAVYYCAREGITTVATTYYWYFDVWGQGTTVTVSS
VL: DVVMTQSPLSLPVTLGQPASISCRSSQSIVHSAGNTYLEWYLQKPGQSPQLLIYKVSNRFSGVPDRFSGSGSGTDFTLKISRVEAEDVGVYYCFQGSHVPLTFGQGTKLEIK
notes: as for B1
B13: toripalimab Fab L.N35A (Fab, V domains shown)
VH: QGQLVQSGAEVKKPGASVKVSCKASGYTFTDYEMHWVRQAPIHGLEWIGVIESETGGTAYNQKFKGRVTITADKSTSTAYMELSSLRSEDTAVYYCAREGITTVATTYYWYFDVWGQGTTVTVSS
VL: DVVMTQSPLSLPVTLGQPASISCRSSQSIVHSNGATYLEWYLQKPGQSPQLLIYKVSNRFSGVPDRFSGSGSGTDFTLKISRVEAEDVGVYYCFQGSHVPLTFGQGTKLEIK
notes: as for B1
B14: toripalimab Fab H.V50A (Fab, V domains shown)
VH: QGQLVQSGAEVKKPGASVKVSCKASGYTFTDYEMHWVRQAPIHGLEWIGAIESETGGTAYNQKFKGRVTITADKSTSTAYMELSSLRSEDTAVYYCAREGITTVATTYYWYFDVWGQGTTVTVSS
VL: DVVMTQSPLSLPVTLGQPASISCRSSQSIVHSNGNTYLEWYLQKPGQSPQLLIYKVSNRFSGVPDRFSGSGSGTDFTLKISRVEAEDVGVYYCFQGSHVPLTFGQGTKLEIK
notes: heavy chain of Sm3 with this change; numbers count from the chain's first residue; as the light chain of Sm3; source: Brevibacillus, culture supernatant (ammonium sulfate precipitate); not shown: 6xHis, C-terminal, kept; 6xHN, C-terminal, kept
B15: toripalimab Fab L.G34Y (Fab, V domains shown)
VH: QGQLVQSGAEVKKPGASVKVSCKASGYTFTDYEMHWVRQAPIHGLEWIGVIESETGGTAYNQKFKGRVTITADKSTSTAYMELSSLRSEDTAVYYCAREGITTVATTYYWYFDVWGQGTTVTVSS
VL: DVVMTQSPLSLPVTLGQPASISCRSSQSIVHSNYNTYLEWYLQKPGQSPQLLIYKVSNRFSGVPDRFSGSGSGTDFTLKISRVEAEDVGVYYCFQGSHVPLTFGQGTKLEIK
notes: as for B1

Assays:
[1] = target: T1, human programmed cell death protein 1 (hPD-1) C93S (aa 24-167) (Homo sapiens, UniProt Q15116, C93S); test: SPR; Carterra LSA; Fab from the ammonium sulfate precipitate of the culture supernatant immobilised on a NiHC200M chip; hPD-1 (1-1024 nM) or mPD-1-Fc (4-1024 nM) as analyte, fourfold dilution series, no regeneration; HBS-EP pH 7.4, 25 °C; medians over the spots of a construct, KD = koff/kon; details: one partner purified
T1 construct: made as a fusion with a TEV site and human Fc; the Fc was cut off with TEV protease; source: Expi293F, purified (Protein A, TEV cleavage of Fc, SEC; monomer fractions); not shown: Fc (human), C-terminal, cleaved
T1 sequence (Q15116 24-167 C93S): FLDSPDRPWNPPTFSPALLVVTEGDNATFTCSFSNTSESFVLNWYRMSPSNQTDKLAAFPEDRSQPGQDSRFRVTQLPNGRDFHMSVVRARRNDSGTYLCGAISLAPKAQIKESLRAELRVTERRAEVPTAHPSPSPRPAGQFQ
Outline: (§1)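 Fabs from Brevibacillus culture supernatants were ammonium sulfate-precipitated, redissolved in HBS-EP and captured in duplicate on a NiHC200M chip (Carterra LSA, 25 °C). Human PD-1 (1–1024 nM) or mouse PD-1-Fc (4–1024 nM) flowed as fourfold series without regeneration, with 10 min association and 5 min dissociation; unconfirmed binders were set to kon 10^3 […], koff 10^−2 s^−1. Rates came from kdka model fits (slow- or fast-dissociation settings, best fit); KD is koff/kon from per-construct medians.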

[2] = target: T2, mouse programmed cell death protein 1 Fc fusion protein (mPD-1-Fc), mPD-1 C60S (aa 25-167) (Mus musculus, UniProt Q02242, stabilised); test: as above; details: one partner purified
T2 construct: not cleaved; source: Expi293F, purified (Protein A, SEC; dimeric fraction); not shown: Fc (human), C-terminal, kept
Outline: as §1

Binder | Kd [1] [nM] | koff [1] [s⁻¹] | kon [1] [M⁻¹ s⁻¹] | Kd [2] [nM] | koff [2] [s⁻¹] | kon [2] [M⁻¹ s⁻¹]
B1 | < 1.35 | < 1e-05 | 7410 | 185 | 0.0077 | 41600
B2 | < 0.585 | < 1e-05 | 17100 | 192 | 0.00979 | 50900
B3 | 2.35 | 4.8e-05 | 20500 | 202 | 0.00961 | 47500
B4 | < 1.51 | < 1e-05 | 6610 | 331 | 0.0155 | 46700
B5 | < 0.489 | < 1e-05 | 20400 | 202 | 0.00784 | 38700
B6 | < 0.372 | < 1e-05 | 26900 | 164 | 0.00757 | 46100
B7 | < 0.431 | < 1e-05 | 23200 | 194 | 0.00881 | 45500
B8 | < 1.11 | < 1e-05 | 8980 | 121 | 0.00533 | 44000
B9 | < 0.678 | < 1e-05 | 14800 | 95.6 | 0.00346 | 36100
B10 | < 1.18 | < 1e-05 | 8480 | 182 | 0.00821 | 45200
B11 | 1.4 | 1.3e-05 | 9280 | 235 | 0.0094 | 40000
B12 | < 0.341 | < 1e-05 | 29300 | 278 | 0.0135 | 48400
B13 | < 1.31 | < 1e-05 | 7640 | 189 | 0.00781 | 41200
B14 | 1.66 | 2.65e-05 | 15900 | 728 | 0.0237 | 32500
B15 | < 0.445 | < 1e-05 | 22500 | 154 | 0.00613 | 39900
